From patent publication US20210230266A1 (SINGAPORE HEALTH SERVICES PTE, published 2021)
Positions count from the first letter of the chain named.

T1: Human IL-11 (human, UniProt P20809 22-199)
T1 construct: Recombinant human IL-11 (GenScript Cat. No. Z03108-1) or IL-11 secreted by human cells; the mature form is said to have 178 residues; also called recombinant human IL-11; endogenously produced IL-11
T1 sequence: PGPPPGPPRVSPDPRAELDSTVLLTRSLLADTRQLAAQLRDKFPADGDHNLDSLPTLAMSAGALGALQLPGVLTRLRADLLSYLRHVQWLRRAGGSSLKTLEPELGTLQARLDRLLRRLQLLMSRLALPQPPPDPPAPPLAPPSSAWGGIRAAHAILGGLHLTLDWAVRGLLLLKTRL

T2: Mouse IL-11 (mouse, UniProt P47873 22-199, limits assumed)
T2 construct: also called murine IL-11; recombinant murine IL-11
T2 sequence (looked up): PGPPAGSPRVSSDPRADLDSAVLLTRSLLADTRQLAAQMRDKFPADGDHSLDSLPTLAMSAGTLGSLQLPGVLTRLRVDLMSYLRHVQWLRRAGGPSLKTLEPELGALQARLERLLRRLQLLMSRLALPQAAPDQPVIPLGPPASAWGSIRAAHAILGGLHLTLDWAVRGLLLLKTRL

T3: FLAG-tagged human IL-11 expressed at the surface of transiently transfected cells (human, UniProt P20809 22-199)
T3 construct: also called IL-11 expressing HEK cells; target cells expressing human IL-11 at their surface; not shown: FLAG tag added to the N-terminus
T3 sequence: T1 sequence

B1: YU100-G08 (antibody, human IgG1, V domains shown)
VH: QVQLVQSGGGVVQPGRSLRLSCAASGFTFSSYGMHWVRQAPGKGLEWVAVISYDGSNKYYADSVKGRFTISRDNSKNTLYLQMNSLRAEDTAVYYCAKIGATDPLDYWGQGTLVTVSS
VL: QSALTQPRSVSGSPGQSVTLSCTGTSSDVGGYNYVSWYQHYPGKAPKLMIFDVNERSSGVPDRFSGSKSGNTASLTISGLQAEDEADYYCCSYAGRYTWMFGGGTKVTVLG
notes: Light chain shuffled human antibody; Only the variable domains are tied to the clone
B2: YU100-H01 (antibody, human IgG1, V domains shown)
VH: QVQLVQSGGGVVQPGRSLRLSCAASGFTFSSYAMHWVRQAPGKGLEWVAVISYDGSNKYYADSVKGRFTISRDNSKNTLYLQMNSLRAEDTAVYYCARIMGYDYGDYDVVDYWGQGTLVTVSS
VL: B1 VL with L20I, G31A, H40Q, Y41H, F51Y, N54S, S57P, R96S, M100V, V107L
notes: as for B1
B3: YU112-E07 (antibody)
chain: QVQLVQSGGGVVQPGRSLRLSCAASGFTFGSYGMHWVRQAPGKGLEWVAVISYDGSNKYYADSVKGRFTISRDNSKNTLYLQMNSLRAEDTAVYYCAKGSYYFDYWGQGTLVTVSSGSASAPKLEEGEFSEARVEIVMTQSPDSLAVSLGERATINCKSSQSVNSAYLAWYQHKPGQPPRLLIYGASRRVTGVPDRFSGSGSGTDFTLTISSLQPEDFATYYCQQSYSDPRWTFGQGTKVEIK
B4: 02G (antibody, IgG1, V domains shown)
VH: B1 VH
VL: B1 VL with C91G
notes: C91G variant of the YU100-G08 VL
B5: 02I (antibody, IgG1, V domains shown)
VH: B1 VH
VL: B1 VL with C91I
notes: C91I variant of the YU100-G08 VL
B6: 02L (antibody, IgG1, V domains shown)
VH: B1 VH
VL: B1 VL with C91L
notes: C91L variant of the YU100-G08 VL
B7: 02Q (antibody, IgG1, V domains shown)
VH: B1 VH
VL: B1 VL with C91Q
notes: C91Q variant of the YU100-G08 VL
B8: 02S (antibody, IgG1, V domains shown)
VH: B1 VH
VL: B1 VL with C91S
notes: C91S variant of the YU100-G08 VL
B9: 02T (antibody, IgG1, V domains shown)
VH: B1 VH
VL: B1 VL with C91T
notes: C91T variant of the YU100-G08 VL
B10: 02V (antibody, IgG1, V domains shown)
VH: B1 VH
VL: B1 VL with C91V
notes: C91V variant of the YU100-G08 VL
B11: YU100-G08_02A (antibody, V domains shown)
VH: B1 VH
VL: B1 VL with C91A
notes: C91A variant of the YU100-G08 VL
B12: 01A (antibody, IgG1, V domains shown)
VH: B2 VH
VL: QSALTQPRSVSGSPGQSVTISCTGTSSDVGAYNYVSWYQQHPGKAPKLMIYDVSERPSGVPDRFSGSKSGNTASLTISGLQAEDEADYYCASYAGSYTWVFGGGTKLTVLG
notes: C91A variant of the YU100-H01 VL
B13: 01G (antibody, IgG1, V domains shown)
VH: B2 VH
VL: B12 VL with A91G
notes: C91G variant of the YU100-H01 VL
B14: 01I (antibody, IgG1, V domains shown)
VH: B2 VH
VL: B12 VL with A91I
notes: C91I variant of the YU100-H01 VL
B15: 01L (antibody, IgG1, V domains shown)
VH: B2 VH
VL: B12 VL with A91L
notes: C91L variant of the YU100-H01 VL
B16: 01Q (antibody, IgG1, V domains shown)
VH: B2 VH
VL: B12 VL with A91Q
notes: C91Q variant of the YU100-H01 VL
B17: 01S (antibody, IgG1, V domains shown)
VH: B2 VH
VL: B12 VL with A91S
notes: C91S variant of the YU100-H01 VL
B18: 01T (antibody, IgG1, V domains shown)
VH: B2 VH
VL: B12 VL with A91T
notes: C91T variant of the YU100-H01 VL
B19: 01V (antibody, IgG1, V domains shown)
VH: B2 VH
VL: B12 VL with A91V
notes: C91V variant of the YU100-H01 VL
B20: BSN-8H11 (antibody, IgG2b, V domains shown)
VH: EVQLQQSGPELVKPGASVKIPCKASGYTFTDYNIDWVKQSHGKSLEWIGDINPNYGGTLYNQKFKGKATLTVDKSSSTAYMELRSLTSEDTAVYYCARGELGHWYFDVWGTGTTVTVSS
VL: DIVLTQSPASLAVSLGQRATISCRASKSVSTSDYSYMHWYQQKPGHPPKLLIYLASNLESGVPARFSGSGSGTDFTLNIHPVEEEDAATYFCQHSRDLPPTFGGGTKLEIK
notes: also called A16
B21: BSN-1H2 (antibody, IgG1, V domains shown)
VH: QAQLQQSGAELARPGASVKLSCKASGYTFTSYGITWVKQRTGQGLEWIGDIYPRSGNIYYNENFKGEATLTADKSSSTAYMQLSRLTSEDSAVYFCARSGWEGWFAYWGQGTLVTVSV
VL: DIVMTQSHKFMSTSVGDRVNITCKASQDVGSAVVWYQQKPGQSPKVLIYWASTRHTGVPDRFTGSGSGTDFTLTISNVQSEDLADYFCQQYSSYRTFGGGTKLEIK
notes: also called A1
B22: BSN-2E1 (antibody, V domains shown)
VH: B20 VH with E1Q, Q6E, I34M, N54H, Y55N, T58P, L59I, K65T
VL: NIVMTQSPKSMSMSVGERVTLTCKASENVVTYVSWYQQKPEQSPKLLIYGASNRYTGVPDRFTGSGSATDFTLTISSVQAEDLADYHCGQGYSYPYTFGGGTKLEIK

Molecular target: T1, Human IL-11
Assay: ELISA on coated recombinant human IL-11 (100 ng/well), scFv-Fc
Description: The light chain shuffled anti-IL-11 antibodies were analysed to determine the EC50 for binding to human IL-11 by ELISA according to standard methods. Briefly, wells of microtiter plates were coated with recombinant human IL-11 (100 ng/well), scFv-Fc comprising the VH and VL domains of the clones were added in a dilution series and antibody binding was detected using a polyclonal antibody detection system.

Compared with B1, B2 is 1.9-fold higher in EC50: 0.028 µg/mL for the first, 0.053 µg/mL for the second.

Work on B3 yielded an EC50 of 0.058 µg/mL.

Molecular target: T1, Human IL-11
Assay: SPR (BIAcore T200) single cycle kinetics, human IL-11 on CM5 chip, 1:1 model
Description: HEK293 EBNDA cells were transfected with vectors encoding scFv corresponding to YU100-H01, 01A, 01G, 01I, 01L, 01Q, 01S, 01T, 01V, YU100-G08, 02A, 02G, 02I, 02L, 02Q, 02S, 02T or 02V.

Compared with B1, B4 is 560-fold higher in Kd: 3.51 nM for the first, 1980 nM for the second. The first binds more tightly here.

Compared with B5, B6 is 1.5-fold higher in Kd: 2.89 nM for the first, 4.36 nM for the second.

B7 and B8 are within 1.5-fold of each other in Kd: 5.84 nM for the first, 4.99 nM for the second.

Compared with B9, B10 is 3.4-fold lower in Kd: 35 nM for the first, 10.4 nM for the second. The second binds more tightly here.

With B11 the Kd was 4.46 nM.

Going from B1 to B4, the koff rises from 0.0013 s⁻¹ to 0.0537 s⁻¹ (41-fold).

B5 and B6 are within 1.5-fold of each other in koff: 0.00238 s⁻¹ for the first, 0.00202 s⁻¹ for the second.

Compared with B7, B8 is 2.6-fold higher in koff: 0.00249 s⁻¹ for the first, 0.00639 s⁻¹ for the second.

B9 and B10 are within 1.5-fold of each other in koff: 0.00207 s⁻¹ for the first, 0.00215 s⁻¹ for the second.

B11 showed a koff of 0.00312 s⁻¹.

Going from B1 to B4, the kon falls from 369000 M⁻¹ s⁻¹ to 27200 M⁻¹ s⁻¹ (14-fold).

Going from B5 to B6, the kon falls from 825000 M⁻¹ s⁻¹ to 463000 M⁻¹ s⁻¹ (1.8-fold).

First: B7
Second: B8
The kon of the first is 3-fold lower: 426000 M⁻¹ s⁻¹ for the first, 1.28e+06 M⁻¹ s⁻¹ for the second.

Compared with B9, B10 is 3.5-fold higher in kon: 59200 M⁻¹ s⁻¹ for the first, 207000 M⁻¹ s⁻¹ for the second.

Binder B11 has a kon of 699000 M⁻¹ s⁻¹.

Molecular target: T1, Human IL-11
Assay: cell-based or functional assay

B1 and B2 are within 1.5-fold of each other in “MMP2 production, Experiment 1 (human atrial fibroblasts + TGFB1)” value: 42.3 ng/mL for the first, 48.3 ng/mL for the second.

In the case of B3, the “MMP2 production, Experiment 1 (human atrial fibroblasts + TGFB1)” value is reported as 53.5 ng/mL.

B1 and B2 are within 1.5-fold of each other in “MMP2 production, Experiment 2 (human atrial fibroblasts + TGFB1)” value: 38 ng/mL for the first, 42.2 ng/mL for the second.

B3 was tested, and the “MMP2 production, Experiment 2 (human atrial fibroblasts + TGFB1)” value was 49.1 ng/mL.

Molecular target: T1, Human IL-11
Assay: SPR, Single Cycle Kinetics, BIAcore T200; human IL-11 immobilised on CM5 chip, antibody in IgG1 format as analyte, 1:1 model

B2 and B12 are within 1.5-fold of each other in Kd: 42.3 nM for the first, 62.6 nM for the second.

Going from B13 to B14, the Kd falls from 560 nM to 29.2 nM (19-fold).

Going from B15 to B16, the Kd rises from 33.5 nM to 104 nM (3.1-fold).

Going from B17 to B18, the Kd falls from 107 nM to 17.1 nM (6.3-fold).

B19 gave a Kd of 84.7 nM.

B2 and B12 are within 1.5-fold of each other in koff: 0.000658 s⁻¹ for the first, 0.00081 s⁻¹ for the second.

First: B13
Second: B14
The koff of the first is 2.7-fold lower: 0.000986 s⁻¹ for the first, 0.00269 s⁻¹ for the second.

Compared with B15, B16 is 1.8-fold higher in koff: 0.000526 s⁻¹ for the first, 0.000966 s⁻¹ for the second.

Compared with B17, B18 is 14-fold higher in koff: 0.000905 s⁻¹ for the first, 0.0127 s⁻¹ for the second.

For B19, the koff was 0.000778 s⁻¹.

B2 and B12 are within 1.5-fold of each other in kon: 14800 M⁻¹ s⁻¹ for the first, 12900 M⁻¹ s⁻¹ for the second.

First: B13
Second: B14
The kon of the first is 52-fold lower: 1760 M⁻¹ s⁻¹ for the first, 92100 M⁻¹ s⁻¹ for the second.

Compared with B15, B16 is 1.7-fold lower in kon: 15700 M⁻¹ s⁻¹ for the first, 9290 M⁻¹ s⁻¹ for the second.

Going from B17 to B18, the kon rises from 8470 M⁻¹ s⁻¹ to 742000 M⁻¹ s⁻¹ (88-fold).

Work on B19 yielded a kon of 9190 M⁻¹ s⁻¹.

Molecular target: T1, Human IL-11
Assay: ELISA
Description: (§1) The soluble scFv were produced by recombinant expression in E. coli, and analysed for their ability to bind to human IL-11 and murine IL-11 by ELISA. Briefly, the respective antigen was coated to wells of an ELISA plate, the cell culture supernatant containing the respective scFv was added at a 1:2 dilution, and binding was detected.

Going from B1 to B2, the “hIL11 - average signal” value rises from 0.153 to 0.43.

With B3 the “hIL11 - average signal” value was 0.71.

Molecular target: T2, Mouse IL-11
Assay: ELISA
Description: as §1

Compared with B1, B2 is higher in “mIL11 - average signal” value: 0.27 for the first, 0.283 for the second.

B3 was tested, and the “mIL11 - average signal” value was 0.561.

Molecular target: T3, FLAG-tagged human IL-11 expressed at …
Assay: flow cytometry, hybridoma supernatant on cells transfected with pB1-IL11-hum.FL; relative to the anti-FLAG positive control (100%)

Going from B20 to B21, the “binding relative to anti-FLAG positive control” value falls from 190% to 157%.

With B22 the “binding relative to anti-FLAG positive control” value was 164%.

Molecular target: T3, FLAG-tagged human IL-11 expressed at …
Assay: flow cytometry, hybridoma supernatant on cells transfected with pB1-IL11-hum.FL

Going from B20 to B21, the GMFI falls from 239000 to 197000.

With B22 the GMFI was 206000.
